According to article PMC3063405:

Key:
[1] = biological target: T1, PUM2-HD (Pumilio-homology domain) (Homo sapiens, UniProt Q8TB72 706-1056); experiment: EMSA
[2] = biological target: T2, PUM1-HD (Pumilio-homology domain) (Homo sapiens, UniProt Q14671 828-1176); experiment: EMSA
[3] = biological target: T2, PUM1-HD (Pumilio-homology domain); experiment: crystal structure
[4] = biological target: T1, PUM2-HD (Pumilio-homology domain); experiment: crystal structure

T1 sequence (Q8TB72 706-1056): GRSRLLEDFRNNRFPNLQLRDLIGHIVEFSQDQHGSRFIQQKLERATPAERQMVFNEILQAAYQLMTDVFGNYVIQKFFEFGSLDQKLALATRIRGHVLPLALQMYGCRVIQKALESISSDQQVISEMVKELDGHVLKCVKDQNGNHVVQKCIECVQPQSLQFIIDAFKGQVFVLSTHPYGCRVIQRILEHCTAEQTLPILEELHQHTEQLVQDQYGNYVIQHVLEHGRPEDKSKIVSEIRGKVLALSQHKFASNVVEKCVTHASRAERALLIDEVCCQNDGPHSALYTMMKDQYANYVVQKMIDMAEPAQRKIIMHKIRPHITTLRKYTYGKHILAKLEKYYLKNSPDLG
T2 sequence (Q14671 828-1176): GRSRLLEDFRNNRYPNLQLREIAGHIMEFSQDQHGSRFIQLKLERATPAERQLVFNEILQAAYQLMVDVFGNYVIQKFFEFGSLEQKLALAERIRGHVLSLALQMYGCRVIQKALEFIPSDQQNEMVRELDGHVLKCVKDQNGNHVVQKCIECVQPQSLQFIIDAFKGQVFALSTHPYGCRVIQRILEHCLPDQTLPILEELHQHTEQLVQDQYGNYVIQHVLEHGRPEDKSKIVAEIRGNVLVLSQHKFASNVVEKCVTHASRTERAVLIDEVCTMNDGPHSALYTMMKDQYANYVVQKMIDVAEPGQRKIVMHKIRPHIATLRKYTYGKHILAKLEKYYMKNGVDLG

Row | Binder | Kd [1] | Kd [2] | binding result [3] | binding result [4]
1 | UGUAUAUA (ssRNA) [hb NRE1] | 0.36 ± 0.02 nM | 0.4 ± 0.01 nM | – | –
2 | UGUAGAUA (ssRNA) [p38α NREb] | 0.08 ± 0.01 nM | 0.63 ± 0.01 nM | – | –
3 | UGUACAUC (ssRNA) [erk2 NRE] | – | – | binds | binds
4 | UGUAAAUA (ssRNA) [p38α NREa] | 0.17 ± 0.02 nM | 0.91 ± 0.08 nM | – | –
5 | UGUACAUA (ssRNA) [hb NRE2] | 0.07 ± 0.01 nM | 1.01 ± 0.05 nM | – | –
